Source: patent US20250129404A1, “RAPID, COLORIMETRIC ASSAY TO DETECT ACETYLTRANSFERASE ACTIVITY IN BIOLOGICAL SAMPLES” (THE FEINSTEIN INSTITUTES FOR MEDICAL RESEARCH, priority 2023, published 2025)

T1: recombinant human ChAT (rChAT) (Homo sapiens, UniProt P28329)
T1 construct: recombinant human ChAT corresponding to residue 119-748; His tag (N-histidine tag) (N); made in house; host or cells: E. coli BL21-Gold (DE3)
T1 sequence (P28329 119-748): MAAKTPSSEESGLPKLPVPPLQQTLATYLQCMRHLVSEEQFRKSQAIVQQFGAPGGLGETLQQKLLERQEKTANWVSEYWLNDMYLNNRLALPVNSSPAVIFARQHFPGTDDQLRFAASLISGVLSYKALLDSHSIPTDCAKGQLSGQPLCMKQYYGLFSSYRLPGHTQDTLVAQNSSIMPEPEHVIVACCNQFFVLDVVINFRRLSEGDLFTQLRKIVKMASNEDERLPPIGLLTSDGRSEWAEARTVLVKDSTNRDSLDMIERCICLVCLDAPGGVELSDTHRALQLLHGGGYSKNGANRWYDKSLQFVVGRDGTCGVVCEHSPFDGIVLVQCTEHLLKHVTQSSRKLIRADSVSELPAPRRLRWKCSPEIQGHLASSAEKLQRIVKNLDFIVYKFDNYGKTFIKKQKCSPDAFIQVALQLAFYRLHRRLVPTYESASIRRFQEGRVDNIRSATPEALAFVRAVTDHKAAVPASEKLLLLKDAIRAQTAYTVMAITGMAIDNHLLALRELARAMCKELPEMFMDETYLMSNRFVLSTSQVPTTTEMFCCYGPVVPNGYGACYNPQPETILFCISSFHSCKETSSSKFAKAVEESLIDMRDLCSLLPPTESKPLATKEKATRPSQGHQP

T2: recombinant human ChAT (rChAT), substrate choline (Homo sapiens, UniProt P28329)
T2 construct: recombinant human ChAT corresponding to residue 119-748; His tag (N-histidine tag) (N); made in house; host or cells: E. coli BL21-Gold (DE3)
T2 sequence (P28329 119-748): T1 sequence (P28329 119-748)

B1: PEG-ChAT: recombinant ChAT PEGylated using MS (PEG) 12 reagent (conjugate, UniProt P28329 1-748, looked up)
Choline O-acetyltransferase: MGLRTAKKRGLGGGGKWKREEGGGTRGRREVRPACFLQSGGRGDPGDVGGPAGNPGCSPHPRAATRPPPLPAHTPAHTPEWCGAASAEAAEPRRAGPHLCIPAPGLTKTPILEKVPRKMAAKTPSSEESGLPKLPVPPLQQTLATYLQCMRHLVSEEQFRKSQAIVQQFGAPGGLGETLQQKLLERQEKTANWVSEYWLNDMYLNNRLALPVNSSPAVIFARQHFPGTDDQLRFAASLISGVLSYKALLDSHSIPTDCAKGQLSGQPLCMKQYYGLFSSYRLPGHTQDTLVAQNSSIMPEPEHVIVACCNQFFVLDVVINFRRLSEGDLFTQLRKIVKMASNEDERLPPIGLLTSDGRSEWAEARTVLVKDSTNRDSLDMIERCICLVCLDAPGGVELSDTHRALQLLHGGGYSKNGANRWYDKSLQFVVGRDGTCGVVCEHSPFDGIVLVQCTEHLLKHVTQSSRKLIRADSVSELPAPRRLRWKCSPEIQGHLASSAEKLQRIVKNLDFIVYKFDNYGKTFIKKQKCSPDAFIQVALQLAFYRLHRRLVPTYESASIRRFQEGRVDNIRSATPEALAFVRAVTDHKAAVPASEKLLLLKDAIRAQTAYTVMAITGMAIDNHLLALRELARAMCKELPEMFMDETYLMSNRFVLSTSQVPTTTEMFCCYGPVVPNGYGACYNPQPETILFCISSFHSCKETSSSKFAKAVEESLIDMRDLCSLLPPTESKPLATKEKATRPSQGHQP
modifications: PEGylated with MS(PEG)12
notes: recombinant ChAT PEGylated using MS (PEG) 12 reagent
B2: rChAT: recombinant human ChAT residue 119-748 with N-histidine tag, expressed in E. coli (protein, UniProt P28329 1-748, looked up)
Choline O-acetyltransferase: B1 Choline O-acetyltransferase

Columns and labels:
[1] = target: T1, recombinant human ChAT (rChAT); experiment: Choline acetyltransferase (ChAT) colorimetric activity assay; format: biochemical
Experimental: Recombinant ChAT protein and ChAT PEGylation. All recombinant ChAT (rChAT) protein used was produced as described previously (10). Briefly, recombinant human ChAT corresponding to residue 119-748 (EC2.3.1.6, UnitProt 28329-3) with a N-histidine tag was expressed in E. coli BL21-Gold (DE3) cells and purified using high affinity Ni-charged columns. The purified recombinant ChAT was dialyzed at 4° C. in buffer containing 0.2×PBS, 10% glycerol and 0.5 mM TCEP (tris(2-carboxyethyl) phosphine), and subjected to extensive Triton X-114 extraction to remove contaminating endotoxins. After purification, PEGylation was carried out using MS (PEG) 12 reagent to extend the plasma half-life of the enzyme (10). Following PEGylation, the protein was dialyzed in buffer and once again extracted with Triton-X-114 to remove contaminating endotoxins. A Bradford protein assay (Bio-Rad) was used to determine rChAT protein concentration. Commercial recombinant ChAT protein was purchased from My BioSource.
Choline Acetyltransferase activity assay. An assay was developed to measure ChAT activity using an adapted version of the colorimetric assay (Reactions 1-3) (13).
Briefly, biological samples and choline chloride standards are diluted in assay buffer (containing 10 mM Tris-HCl, 150 mM NaCl, 1 mM EDTA, and 0.05% Triton X-100). 100 μl of each standard and 40 μl of each sample are added in triplicate to a 96-well plate. […] The assay is developed by addition of 150 μL of 3′3′5′5′ Tetramethylbenzidine (TMB) to all wells, and the plate is immediately analyzed spectrophotometrically at 650 nm. ChAT Activity is determined from the interpolated amount of choline depleted during the reaction, divided by the reaction time and sample volume, and multiplied by the sample dilution factor (Equation 1). In all biological samples, ChAT activity is normalized to total protein concentration, measured using Bradford protein assay (Bio-Rad) and is represented as nmol/min/mg of total protein. […]

[2] = system: TNF; experiment: Acute endotoxemia (LPS), TNF by ELISA; format: in vivo, mouse; settings: 1 mg/kg i.p. 30 min prior to 0.3 mg/kg LPS, 90 min after LPS
Experimental: Endotoxemia. Lipopolysaccharide (LPS, Escherichia coli 0111: B4; Sigma) was sonicated for 30 min, vortexed and administered intraperitoneally (LD50 7 mg/kg). Animals were euthanized by CO2 asphyxiation 90 min post-LPS administration and blood was collected by cardiac puncture using heparinized syringes. Blood samples were kept on ice and centrifuged for 10 minutes at 5000 g. Plasma TNF levels were quantified using a commercially available ELISA (Invitrogen). Plasma total protein concentration was determined using a Bradford Protein Assay (Bio-Rad). Sepsis scores were determined at respective timepoints up to 72 hours following endotoxin administration as described previously (19), where a maximum score of 28 per mouse denotes the greatest clinical sickness score.
Administration of PEG-ChAT and Anti-ChAT Neutralizing Antibody. Pegylated recombinant ChAT protein or a custom made monoclonal anti-ChAT antibody (GenScript) was administered intraperitoneally at a 1 mg/kg dose 30 minutes prior to LPS administration. Acute endotoxemia was induced with a dose of 0.3 mg/kg LPS. Animals were returned to their home cages and euthanized 90 minutes after LPS administration.

[3] = system: DSS-induced experimental colitis in C57Bl/6 male mice; experiment: DSS colitis model; format: in vivo, mouse; settings: for histological damage (inflammation severity, crypt damage, extent of inflammation): blinded H&E scoring, day 14 (FIG. 4E-F)
Experimental: DSS Colitis Model. DSS (DSS salt, colitis grade (MW: 36000-50000), MP Biomedicals, CA) was added to the drinking water in a final concentration of 3% (wt/vol) for 7 days. The water was changed to regular water on day 8 and maintained till the end of the experiment. Survival and the disease activity index (DAI) were evaluated daily in a blinded manner. On day 14, mice were euthanized under CO2 asphyxiation and blood and tissue were collected. Colons were removed, cleaned, and sectioned longitudinally. The luminal contents were removed with cold phosphate buffered saline (PBS). Starting from the most distal end (rectum) the colon was rolled with luminal side facing upward, resulting in a “Swiss roll” with the distal end in the center and the proximal colon in the outer side of the roll. The Swiss roll was held together with a small pin and placed in 10% buffered formalin overnight at 4° C. The fixed tissue was then embedded in paraffin, sectioned at 10 μm and stained with hematoxylin and eosin. Histological analysis was carried out in a blinded manner by three independent researchers. The degree of colon inflammation was scored under the light microscope (Zeiss, Germany) using the following criteria: inflammation severity (0—none; 1—mild; 2—moderate; 3—severe), inflammation extent (0—none; 1—mucosal; 2—mucosal and submucosal; 3—transmural), Crypt damage (0—none; 1—basal, ⅓ damaged; 2—basal, ⅔/damaged; 3—crypt loss), damage distribution (0-0%; […]; 3-51-75%; 4-76-100%). Each mouse tissue was scored over 6 different sites of the colon. Serum cytokine levels (IL-6, TNFα and MCP-1) were analyzed using mouse V-Plex Biomarker Group 1 array, and the assay was performed according to the manufacturer's instructions.

[4] = target: T2, recombinant human ChAT (rChAT), substrate choline; experiment: Michaelis-Menten kinetic constants, Coenzyme A detection assay; format: biochemical; settings: rChAT 2 μg/mL; Michaelis-Menten / Lineweaver Burke (FIG. 7C-D)
Experimental: Determination of Michaelis-Menten kinetic constants. To determine the Km constants for rChAT samples, a previously published Coenzyme A detection assay was used (12). Briefly, Coenzyme A standard was diluted in assay buffer. 100 μl of each standard and 40 μl of each sample was added to the 96-well plate in triplicate. 60 μl of Cocktail A was added to all sample wells. Immediately, 50 μl of Cocktail B was added to all sample and standard wells. The plate was immediately quantitated spectrophotometrically at 324 nm every 30 seconds for 30 minutes. Enzyme velocity was quantified as CoA formed (nmol/min/ml).
Data analysis and statistics. Data were analyzed using Graphpad Prism 9.0 software using two-tailed unpaired […] for comparisons between 2 groups or two-way ANOVA or mixed-effects model followed with Šídák's multiple comparisons test for comparisons of 3 or more groups. Michaelis Menten kinetic constants were determined using the Michaelis-Menten approximation to calculate Km and Vmax from a velocity vs. substrate relationship. Correlation coefficients were calculated using a nonparametric Spearman Correlation. For all analyses, P≤0.05 was considered statistically significant.

[5] = system: hypertensive animals; settings: background statement; cited from earlier work

Row | Molecule | IC50 ([1]; preincubation of 0.4 mg/mL rChAT with inhibitor, room temperature 30 minutes (FIG. 7E)) [nM] | serum TNF vs vehicle [2] | spleen TNF vs vehicle [2] | serum TNF vs vehicle ([2]; listed as PEG-ChAT antibody) | disease activity index (DAI) vs vehicle ([3]; 1 mg/kg i.p. twice daily from day 7, from day 9 (FIG. 4C)) | severity of colitis ([3]; 1 mg/kg i.p. twice daily from day 7 to day 14) | weight loss vs vehicle ([3]; 1 mg/kg i.p. twice daily from day 7 to day 14 (FIG. 4B)) | histological damage (inflammation severity, crypt damage, extent of inflammation) [3] | colon length ([3]; day 14 (FIG. 4D)) | circulating IL-6 vs vehicle ([3]; serum, day 14 (FIG. 5A)) | circulating TNF vs vehicle ([3]; serum, day 14 (FIG. 5B)) | circulating MCP-1 vs vehicle ([3]; serum, day 14 (FIG. 5C)) | detected activity after thermal denaturing, in comparison to native preparation ([1]; 70° C. for 30 minutes (FIG. 7F), P<0.01) | enzymatic activity compared to a commercially available ChAT ([1]; FIG. 7B, P<0.01) | Vmax [4] | blood pressure [5]
1 | C[N+](C)(C)CCC(=O)c1cccc2ccccc12 [alpha-NETA, reference compound] | 148 |  |  |  |  |  |  |  |  |  |  |  |  |  |  | 
2 | B1 |  | significantly attenuates | decrease | significantly ameliorated | significant reduction | significantly reduces | significant reduction | attenuates | significantly improves | significantly reduced | significantly reduced | significantly reduced |  |  |  | 
3 | B2 |  |  |  |  |  |  |  | reduced |  |  |  |  | significantly reduced | significant increase | 0.05 Δ CoA (nmol/min) | normalizes
